Read-outs that look alike come from different tables or passages of the source.

In data set [1] the test system is integrin αvβ3 positive PC-3 tumor xenografts. On the set-up: species or system SCID mice. To be noted: mouse, in vivo.
Details of data set [2]: species or system SCID mice. To be noted: mouse, in vivo, tumor uptake.
The subject of data set [3] is integrin αvβ3 positive PC-3 tumor xenografts. On the set-up: species or system SCID mice. The settings on record: mouse, in vivo. The source holds these as a separate data set.
Details of data set [4]: species or system SCID mice. To be noted: mouse, in vivo.
On the set-up of data set [5]: species or system SCID mice. The settings on record: mouse, in vivo. This is another data set of the same source.
On the set-up of data set [6]: species or system SCID mice. The settings on record: mouse, in vivo. The source holds these as a separate data set.
For data set [7] the following is noted: cited from earlier work; for thermodynamic stability constant log K: Ga(III) complex.
The next data set concerns the target integrin αvβ3 (human (endogenous in U87MG), UniProt P06756 31-1048; P05106 27-788). In words: radioligand binding.

integrin αvβ3, sequence (P06756 31-1048, chain 1 of 2): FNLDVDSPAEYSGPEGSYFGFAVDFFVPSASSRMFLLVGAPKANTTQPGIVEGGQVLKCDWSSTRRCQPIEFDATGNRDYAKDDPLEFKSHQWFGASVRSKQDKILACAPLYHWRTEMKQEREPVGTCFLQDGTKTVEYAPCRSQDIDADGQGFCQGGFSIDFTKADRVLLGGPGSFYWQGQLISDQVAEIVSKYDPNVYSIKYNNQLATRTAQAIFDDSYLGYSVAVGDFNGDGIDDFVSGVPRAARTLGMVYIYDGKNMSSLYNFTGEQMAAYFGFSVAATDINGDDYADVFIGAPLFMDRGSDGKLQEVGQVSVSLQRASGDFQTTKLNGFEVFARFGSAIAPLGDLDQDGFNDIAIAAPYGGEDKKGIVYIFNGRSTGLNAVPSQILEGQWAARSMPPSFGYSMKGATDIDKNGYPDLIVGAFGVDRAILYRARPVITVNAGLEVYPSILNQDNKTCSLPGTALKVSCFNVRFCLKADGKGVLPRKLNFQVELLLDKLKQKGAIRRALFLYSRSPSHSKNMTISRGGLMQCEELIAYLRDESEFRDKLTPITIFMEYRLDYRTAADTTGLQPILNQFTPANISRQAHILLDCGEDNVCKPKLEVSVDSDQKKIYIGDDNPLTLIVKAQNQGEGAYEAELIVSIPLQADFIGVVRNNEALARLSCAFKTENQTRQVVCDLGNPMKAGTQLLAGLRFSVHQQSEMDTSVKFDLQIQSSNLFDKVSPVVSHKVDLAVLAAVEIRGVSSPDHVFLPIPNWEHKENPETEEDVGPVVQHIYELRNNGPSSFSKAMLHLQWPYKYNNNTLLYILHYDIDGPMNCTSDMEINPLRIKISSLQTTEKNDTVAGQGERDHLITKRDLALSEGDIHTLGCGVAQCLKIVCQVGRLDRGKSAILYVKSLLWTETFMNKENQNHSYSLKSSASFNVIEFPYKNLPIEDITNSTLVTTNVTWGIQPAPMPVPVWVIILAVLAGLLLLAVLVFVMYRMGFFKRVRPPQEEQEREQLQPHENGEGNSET
integrin αvβ3, sequence (P05106 27-788, chain 2 of 2): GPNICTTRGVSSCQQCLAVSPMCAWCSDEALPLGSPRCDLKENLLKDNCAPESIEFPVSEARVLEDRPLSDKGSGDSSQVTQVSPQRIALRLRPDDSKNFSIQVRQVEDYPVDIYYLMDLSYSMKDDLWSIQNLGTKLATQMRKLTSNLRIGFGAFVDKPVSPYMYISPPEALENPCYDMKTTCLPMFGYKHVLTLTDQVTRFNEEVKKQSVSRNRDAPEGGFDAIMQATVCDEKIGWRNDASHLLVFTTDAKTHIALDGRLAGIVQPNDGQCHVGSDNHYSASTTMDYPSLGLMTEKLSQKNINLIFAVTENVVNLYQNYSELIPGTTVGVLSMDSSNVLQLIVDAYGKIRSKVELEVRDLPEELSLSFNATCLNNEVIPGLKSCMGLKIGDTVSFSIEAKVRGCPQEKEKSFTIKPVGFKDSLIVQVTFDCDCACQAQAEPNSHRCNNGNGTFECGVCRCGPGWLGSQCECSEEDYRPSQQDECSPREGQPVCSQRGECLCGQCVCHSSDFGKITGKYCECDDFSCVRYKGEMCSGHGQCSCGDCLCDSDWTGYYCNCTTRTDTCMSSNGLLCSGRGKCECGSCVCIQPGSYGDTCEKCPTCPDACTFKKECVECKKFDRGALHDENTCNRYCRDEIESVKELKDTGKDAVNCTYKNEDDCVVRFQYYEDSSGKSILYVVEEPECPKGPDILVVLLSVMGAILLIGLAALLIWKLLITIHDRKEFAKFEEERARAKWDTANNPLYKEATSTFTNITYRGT

`N=C(N)NCCC[C@@H]1NC(=O)[C@H](CCCCNC(=S)Nc2ccc(C[C@H]3CN(CC(=O)O)CCN(CC(=O)O)CCN3CC(=O)O)cc2)NC(=O)[C@@H](Cc2ccc(O)cc2)NC(=O)[C@H](CC(=O)O)NC(=O)CNC1=O` [^68Ga-1a, metal not drawn]: in data set [1], the “tumor uptake retention at 2 h p.i.” value came to 43%. For the same molecule, the figures for the tissue uptake at 2 h in data set [2], in data set [4] (kidney uptake) and in data set [4] (tumor uptake) were 1.4 ± 0.36 %ID/g, 2.95 ± 0.76 %ID/g and 1.63 ± 0.19 %ID/g, respectively. The “kidney uptake retained at 2 h p.i.” value in data set [3] is “less than 60%”. The tissue uptake (commonly the share of the injected amount in each gram of the tissue) at 0.5 h in data set [4] (kidney uptake) stood at 6.25 ± 0.61 %ID/g; in data set [4] (liver uptake) it was 1.98 ± 0.29 %ID/g. For the same molecule, the half-life (commonly how long it takes for the measured level to halve) amounted to 4 ± 1.1 min in data set [5] (t1/2(α), distribution half-life) and 29.8 ± 7.1 min in data set [5] (t1/2(β), terminal half-life). In addition, the “metabolites in urine by radio-HPLC” value in data set [6] is given as “no metabolites were detected”.
`O=C([O-])CN1CCN(CC(=O)[O-])CCN(C(CC(=O)O)C(=O)[O-])CC1.[Ga+3]` (stereo not shown) [Ga-NODASA]: the “thermodynamic stability constant log K” value in data set [7] (ref 24) is given as 30.9.
Turning to `O=C([O-])CN1CCN(CC(=O)[O-])CCN(CC(=O)[O-])CC1.[Ga+3]` [Ga(III)-NOTA complex], in data set [7] (6N HNO3 for 6 days), the acid-catalyzed dissociation result is listed as “stay inert against the acid-catalyzed dissociation”. Moreover, the “thermodynamic stability constant log K” value in data set [7] (ref 22, 24) is given as 30.98; in data set [7] (ref 24) it was 30.98.
Regarding `O=C([O-])CN1CCN(CC(=O)[O-])CCN(CC(=O)O)CCN(CC(=O)[O-])CC1.[Ga+3]` [DOTA complex with Ga(III)], the “thermodynamic stability constant log K” value in data set [7] (ref 39) is 21.33.
Consider cyclo(RGDYK) (not fully specified (residue 4)) [c(RGDyK) peptide], for which, in the data set with integrin αvβ3, the IC50 – broadly, the concentration needed to halve the response being measured – turned out to be 204 nM.

The values are drawn from article PMC3170926 (Bioconjugate chemistry, 2011).
